# Results published in publication PMC6771821, “Cryo‐EM structure of the MinCD copolymeric filament from Pseudomonas aeruginosa at 3.1 Å resolution” (Febs Letters, 2019).
# B1: MinC from Pseudomonas aeruginosa, full-length, His6-tagged (natural protein, UniProt Q9HYZ7 1-263, looked up)
# chain: MSQADLLDQDPVFQLKGSMLAVTILELAHNDLARLERQLADKVAQAPNFFRDTPLVMALDKLPEGEGRLDLPALLEVCRRHGLRTLAIRAGREEDIAAAQALDLPVLPPSGARERPLDIKDSAPRKPAEEPSPSAGEARPEPAKAEEKPAEPVSRPTKVVKTPVRGGMQIYAAGGDLIVLAAVSPGAELLADGNIHVYGPMRGRALAGVKGDATARIFCQQLAAELVSIAGNYKVAEDLRRSPQWGKAVHVSLSGDVLNITRL
# notes: MinC (septum site-determining protein), Pseudomonas aeruginosa, residues 1-263, cloned into pET-15b; only residues 156-261 (MinC^C) are modelled in the cryo-EM map; the tag was not removed; also called MinC2 (dimer); source: E. coli C41(DE3), purified (HisTrap HP, dialysis); not shown: His6, N-terminal, kept
# Biological target: the molecule itself
# Assay: cryo-EM structure; unsupported MinCD filaments in solution; MinC and MinD each 0.5 mg/mL combined in equal proportion in 20 mM HEPES-Na, 100 mM potassium acetate, 5 mM magnesium acetate, pH 7.0; 1 mM ATP, 15 min at room temperature; helical reconstruction
protein,measurement,value
B1,binding result,binds
